{
  "source": "paper PMC13226650",
  "about": "“Non-decameric NLRP3 reveals a TGN/MTOC-distal pathway of inflammasome activation” (Nature Communications, 2026)",
  "proteins": {"B1": {"name": "MBP-NLRP3(Δexon3) + GSGAGG linker (natural protein, human)", "chain": "MASTRCKLARYLEDLEDVDLKKFKMHLEDYPPQKGCIPLPRGQTEKADHVDLATLMIDFNGEEKAWAMAVWIFAAINRRDLYEKAKRDEPKWGSGAGGDYRKKYRKYVRSRFQCIEDRNARLGESVSLNKRYTRLRLIKEHRSQQEREQELLAIGKTKTCESPVSPIKMELLFDPDDEHSEPVHTVVFQGAAGIGKTILARKMMLDWASGTLYQDRFDYLFYIHCREVSLVTQRSLGDLIMSCCPDPNPPIHKIVRKPSRILFLMDGFDELQGAFDEHIGPLCTDWQKAERGDILLSSLIRKKLLPEASLLITTRPVALEKLQHLLDHPRHVEILGFSEAKRKEYFFKYFSDEAQARAAFSLIQENEVLFTMCFIPLVCWIVCTGLKQQMESGKSLAQTSKTTTAVYVFFLSSLLQPRGGSQEHGLCAHLWGLCSLAADGIWNQKILFEESDLRNHGLQKADVSAFLRMNLFQKEVDCEKFYSFIHMTFQEFFAAMYYLLEEEKEGRTNVPGSRLKLPSRDVTVLLENYGKFEKGYLIFVVRFLFGLVNQERTSYLEKKLSCKISQQIRLELLKWIEVKAKAKKLQIQPSQLELFYCLYEMQEEDFVQRAMDYFPKIEINLSTRMDHMVSSFCIENCHRVESLSLGFLHNMPKEEEEEEKEGRHLDMVQCVLPSSSHAACSHGLVNSHLTSSFCRGLFSVLSTSQSLTELDLSDNSLGDPGMRVLCETLQHPGCNIRRLWLGRCGLSHECCFDISLVLSSNQKLVELDLSDNALGDFGIRLLCVGLKHLLCNLKKLWLVSCCLTSACCQDLASVLSTSHSLTRLYVGENALGDSGVAILCEKAKNPQCNLQKLGLVNSGLTSVCCSALSSVLSTNQNLTHLYLRGNTLGDKGIKLLCEGLLHPDCKLQVLELDNCNLTSHCCWDLSTLLTSSQSLRKLSLGNNDLGDLGVMMFCEVLKQQSCLLQNLGLSEMYFNYETKSALETLQEEKPELTVVFEPSW", "notes": "NLRP3, human, UniProt Q96P20, residues 3-94 (before the deleted exon 3 linker 95-134); short flexible linker that replaces residues 95-134; NLRP3, human, UniProt Q96P20, residues 135-1036 (after the deleted exon 3 linker 95-134); also called ∆95-134 + linker (GSGAGG); source: baculovirus-infected Sf9 insect cells, purified (MBP-trap, SEC on Superose 6 Increase); not shown: MBP, N-terminal, kept"}, "B2": {"name": "MBP-NLRP3(Δexon3) (natural protein, human, UniProt Q96P20 3-1036, looked up)", "chain": "MASTRCKLARYLEDLEDVDLKKFKMHLEDYPPQKGCIPLPRGQTEKADHVDLATLMIDFNGEEKAWAMAVWIFAAINRRDLYEKAKRDEPKWDYRKKYRKYVRSRFQCIEDRNARLGESVSLNKRYTRLRLIKEHRSQQEREQELLAIGKTKTCESPVSPIKMELLFDPDDEHSEPVHTVVFQGAAGIGKTILARKMMLDWASGTLYQDRFDYLFYIHCREVSLVTQRSLGDLIMSCCPDPNPPIHKIVRKPSRILFLMDGFDELQGAFDEHIGPLCTDWQKAERGDILLSSLIRKKLLPEASLLITTRPVALEKLQHLLDHPRHVEILGFSEAKRKEYFFKYFSDEAQARAAFSLIQENEVLFTMCFIPLVCWIVCTGLKQQMESGKSLAQTSKTTTAVYVFFLSSLLQPRGGSQEHGLCAHLWGLCSLAADGIWNQKILFEESDLRNHGLQKADVSAFLRMNLFQKEVDCEKFYSFIHMTFQEFFAAMYYLLEEEKEGRTNVPGSRLKLPSRDVTVLLENYGKFEKGYLIFVVRFLFGLVNQERTSYLEKKLSCKISQQIRLELLKWIEVKAKAKKLQIQPSQLELFYCLYEMQEEDFVQRAMDYFPKIEINLSTRMDHMVSSFCIENCHRVESLSLGFLHNMPKEEEEEEKEGRHLDMVQCVLPSSSHAACSHGLVNSHLTSSFCRGLFSVLSTSQSLTELDLSDNSLGDPGMRVLCETLQHPGCNIRRLWLGRCGLSHECCFDISLVLSSNQKLVELDLSDNALGDFGIRLLCVGLKHLLCNLKKLWLVSCCLTSACCQDLASVLSTSHSLTRLYVGENALGDSGVAILCEKAKNPQCNLQKLGLVNSGLTSVCCSALSSVLSTNQNLTHLYLRGNTLGDKGIKLLCEGLLHPDCKLQVLELDNCNLTSHCCWDLSTLLTSSQSLRKLSLGNNDLGDLGVMMFCEVLKQQSCLLQNLGLSEMYFNYETKSALETLQEEKPELTVVFEPSW", "notes": "NLRP3, human, UniProt Q96P20, residues 3-1036 with the linker region encoded by exon 3 (residues 95-134) deleted; a TEV site stands between MBP and NLRP3; Calculated mass of the MBP-NLRP3(Δexon3) monomer is printed as 154.8 kDa; also called MBP-NLRP3 (∆95-134); source: baculovirus-infected Sf9 insect cells, purified (MBP-trap, SEC on Superose 6 Increase); not shown: MBP, N-terminal, kept"}},
  "key": {"[1]": {"target": "the molecule itself", "assay": "SEC + other: negative-stain EM; Superose 6 Increase 10/300 GL in 50 mM HEPES pH 7.5, 150 mM NaCl, 0.5 mM TCEP, 10 mM MgCl2, 1 mM ADP; elution against a gel filtration standard; SEC fractions of peak 2 imaged after 2 % uranyl acetate stain"}, "[2]": {"target": "the molecule itself", "assay": "SEC-MALS; peak 2 fractions (C7-D4) pooled, 1.3 mg/mL; Superose 6 Increase 10/300 GL in lysis buffer (50 mM HEPES pH 7.5, 150 mM NaCl, 0.5 mM TCEP, 10 mM MgCl2, 1 mM ADP); 0.5 mL/min"}},
  "data": [
    {"protein": "B1", "values": [
      {"measurement": "binding result", "setting": "[1]", "value": "binds"}
    ]},
    {"protein": "B2", "values": [
      {"measurement": "stoichiometry N", "setting": "[2]", "value": 2}
    ]}
  ]
}
